Reference: patent publication US20250163129A1 (IMMUNOS THERAPEUTICS, published 2025)

Target: T1, HLA-B57(A46E/V97R).β2m IgG4 Fc fusion protein dimer associated with β2m (human; homo sapiens)
T1 construct: also called iosH2; losH2
Assay: ELISA, biotinylated LILRB2 on streptavidin plate
Text: The inventors went on to dissect the immunological properties most relevant to tumor immunity associated with HLA-B57^{(A46E/V97R)} formats, all lacking association with a peptide epitope associated with the peptide-binding groove of the HLA class I domain of the fusion protein. The affinity of interaction of LILRB2 with wildtype HLA-B57 fusion protein (dimers) lacking β2m, HLA-B57^{(A46E/V97R)} fusion protein (dimers) lacking β2m, and HLA-B57^{(A46E/V97R)} fusion protein dimers still bound to β2m was measured using the enzyme-linked immunosorbent assay (ELISA) method. Flat bottom Pierce™ Streptavidin coated high binding capacity 96 well plates (Pierce #15500) were coated with 50 μl of c-terminally biotinylated antigen molecules (LILRB2, BPS Bioscience #100335) immobilized at a final concentration of 5 μg/ml in PBS buffer. PBS and IgG isotype were used as negative controls. A serial dilution of HLA-B57, or HLA-B57^{(A46E/V97R)} lacking β2m, and HLA-B57^{(A46E/V97R)}.β2m (eight concentration points: 10, 2.5, 1, 0.25, 0.1, 0.025, 0.01, 0.0025 μg/ml) was applied (50 μl) in duplicates. An APC conjugated goat anti-human IgG antibody (Jackson Immuno Research #109-135-098) with 1:100 dilution in TBS (50 μl) was used for detection. Finally, 50 μl TBS in each well was added and a fluorescence scan was performed with APC excitation and emission wavelengths of 650 nm & 660 nm, respectively. […]

binding result: binds
B1: LILRB2, c-terminally biotinylated (BPS Bioscience #100335) (receptor, UniProt Q8N423 22-458, looked up)
chain: QTGTIPKPTLWAEPDSVITQGSPVTLSCQGSLEAQEYRLYREKKSASWITRIRPELVKNGQFHIPSITWEHTGRYGCQYYSRARWSELSDPLVLVMTGAYPKPTLSAQPSPVVTSGGRVTLQCESQVAFGGFILCKEGEDEHPQCLNSQPHARGSSRAIFSVGPVSPNRRWSHRCYGYDLNSPYVWSSPSDLLELLVPGVSKKPSLSVQPGPVMAPGESLTLQCVSDVGYDRFVLYKEGERDLRQLPGRQPQAGLSQANFTLGPVSRSYGGQYRCYGAHNLSSECSAPSDPLDILITGQIRGTPFISVQPGPTVASGENVTLLCQSWRQFHTFLLTKAGAADAPLRLRSIHEYPKYQAEFPMSPVTSAHAGTYRCYGSLNSDPYLLSHPSEPLELVVSGPSMGSSPPPTGPISTPGPEDQPLTPTGSDPQSGLGRHL
modifications: C-terminal biotin
notes: Bought reagent immobilised on streptavidin plates
